The values below come from patent US20220242939A1 (BIOARCTIC, published 2022).

The chains are these.
T1: L198 N-terminal neo-epitope peptide LAGQPL-Acp-C (SEQ ID NO:52) conjugated to BSA (human, not fully specified (residue 8); printed as LAGQPL-Acp-C; also: C-terminal Cys conjugated to BSA carrier)
T1 construct: BSA carrier; also called L198-BSA peptide
T1 peptide: LAGQPL[Ahx]C

T2: G200 N-terminal neo-epitope peptide GQPLQE-Acp-C (SEQ ID NO:50) conjugated to BSA (human, not fully specified (residue 8); printed as GQPLQE-Acp-C; also: C-terminal Cys conjugated to BSA carrier)
T2 construct: also called G200-BSA peptide; G200-peptide
T2 peptide: GQPLQE[Ahx]C

B1: 12B1, monoclonal anti-L198 antibody (antibody, IgG2c, V domains shown)
VH: EVKLEESGGGLVQPGGSMKLSCVASGITFSKYWMNWVRQCPEKGLEWVAQIRLRSDNYATHYAESVKGRFTISRDDSKSSVYLQMNTLRAEDTGIYYCTHHYYGSSGYVDVWGTGTTVTVSS
VL: DIVMTQSQKFMSTSVGDRVSVTCKASQNVGTNVAWYQQKPGQCPKGMILSASQRYSGVPDRFTGSGFGTEFTLTISNVQSEDLAEYFCQQYNSYPYTFGGGTKLERK
B2: 15H11, monoclonal anti-L198 antibody (antibody, IgG1, V domains shown)
VH: B1 VH with S17A, K31N, R54K
VL: B1 VL with T31N, Q38K, T74I, Q89H
B3: 28F2, hybridoma monoclonal antibody (unpurified supernatant) (antibody, mouse IgG1, V domains shown)
VH: QIQLVQSGPDLKKPGETVKISCKASGYTFTNYAMHWMKQAPGKALKWMGWINTYTGEPTFADDFKGRFAFSLETSASTAYLQINSLKNEDMATYFCAREGYYDRSHYFDYWGQGTTLTVSS
VL: DVLMTQTPLSLPVSLGDQASISCRSSLSLVHGDGNTYLEWYLQKPGQSPKLLIYKVSNRFSGVPDRFSGSGSGTDFTLKISRVEAEDLGVYYCLQGSHIPFTFGSGTKLEIK
B4: 4E6, hybridoma monoclonal antibody (unpurified supernatant) (antibody, V domains shown)
VH: EVQLVESGGDLVKPGGSLKLSCAASGFTFSSYAMSWVRQSPEKRLEWVAEISGSGSRDHYTDSVTGRFTVSRDNAKNTLYLEMSSLRSEDTAIYYCARQLTGTDYYGTDYWGQGTSVTVSS
VL: DVLMTQIPLSLPVSLGDQASISCRSSQSIVYSNGNTYLEWYLQRPGQSPKLLIYKVSNRFSGVPDRFSGSGSGTDFTLKISRVEAEDLGVYYCFQGSHLPYTFGGGTKLEIK
B5: 7B10, hybridoma monoclonal antibody (unpurified supernatant) (antibody, mouse IgG1, V domains shown)
VH: AVQLVESGGGLVKPGRSLKLSCAASGFTFSSYAMSWVRQFPDKRLDWVAEISSGGGSTNYLDTVTGRFTISRDNAKNTLYLEMNSLRSEDTAMYYCARQLVGTDYYGTDYWGQGTSVTVSS
VL: B4 VL with I7T, S28N, R44K, L99V
notes: also called 7610
B6: 17G4, hybridoma monoclonal antibody (unpurified supernatant) (antibody, mouse IgG1, V domains shown)
VH: EVQLVESGGGLVKPGGSLKLSCSASGFTFSRYAMSWVRQSPEKRLEWVAEINSGGSYSFYSDTVTGRFTISRDNAKNTLFLEMSSLRSEDTAIYYCARQLTGTDYYGTDYWGQGTSVTVSS
VL: B4 VL with I7T, L15H, I29L, V30L, R44K, L99V
B7: 7C7, hybridoma monoclonal antibody (unpurified supernatant) (antibody, mouse IgG2b, V domains shown)
VH: EVQLVESGGGLVKPGGSLRLSCAASGFTFSSFAMSWVRQSPERRLEWVAEISRGGGYAFYSDTVTGRFTISRDNARNTLFLEMGSLRSEDTAMYYCSRQLTGTDYYAMDYWGQGTSVTVSS
VL: B4 VL with M4L, I7T, P12F, S32T, R44K, H98Q, L99V, I111L
B8: 23D5, hybridoma monoclonal antibody (unpurified supernatant) (antibody, mouse IgG1, V domains shown)
VH: B6 VH with T101S
VL: B4 VL with I7T, L15H, I29L, V30L, R44K, L99V

Substitutions are numbered along the chain they refer to. Non-standard residues stand in square brackets, D forms with d. No end group written: not given here. Ahx = NCCCCCC(=O)O

T5 sequence (P02649 19-317 C130R limits assumed): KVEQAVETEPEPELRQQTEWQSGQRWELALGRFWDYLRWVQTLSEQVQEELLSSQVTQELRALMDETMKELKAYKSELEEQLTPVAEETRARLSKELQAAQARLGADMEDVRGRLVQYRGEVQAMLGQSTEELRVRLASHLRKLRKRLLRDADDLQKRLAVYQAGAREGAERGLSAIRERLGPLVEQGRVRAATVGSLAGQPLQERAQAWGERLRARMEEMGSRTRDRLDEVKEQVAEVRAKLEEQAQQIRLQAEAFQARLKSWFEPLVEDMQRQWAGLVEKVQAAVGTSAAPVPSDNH
T6 sequence (P02649 other isoform, or with tags, fused parts or gaps limits assumed): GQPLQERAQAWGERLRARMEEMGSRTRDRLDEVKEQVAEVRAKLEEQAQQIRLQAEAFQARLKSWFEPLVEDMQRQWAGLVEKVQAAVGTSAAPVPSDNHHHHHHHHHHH
T3 sequence (P02649 other isoform, or with tags, fused parts or gaps limits assumed): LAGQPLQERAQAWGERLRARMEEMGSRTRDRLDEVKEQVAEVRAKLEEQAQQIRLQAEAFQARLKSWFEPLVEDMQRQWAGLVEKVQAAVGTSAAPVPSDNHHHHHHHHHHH

One assay concerns the target T3, recombinant C-terminal ApoE fragment L198-HIS (ApoE-L198-H299-10xHIS) (human, UniProt P02649 216-317).
T3 construct: also called L198-HIS fragment
Kind of assay: direct ELISA, L198-HIS coated at 0.1 µM. On the procedure:
(§1) Selectivity evaluation of purified monoclonal antibodies by direct ELISA: The direct ELISA described below was used to evaluate the binding selectivity of the purified monoclonal antibodies produced in Example 14.
(§2) The screening was performed according to standard ELISA protocols. Briefly, 1 μg/ml solutions of BSA-conjugated neo-epitope peptides and negative control peptide, and 0.1 μM recombinant C-terminal ApoE fragment and full-length ApoE (Abcam, cat. no. ab50243) were prepared by dilution in PBS. 50 μl/well were added to an ELISA half-area 96 well microtiter plate, and the plate was sealed with adhesive sealer and incubated over night at 4° C. After discarding the solution, the plates were blocked with 150 μl/well of protein-free blocking solution (Pierce) for 1 h at room temperature with shake (600-900 rpm). The plates were washed four times with washing buffer containing 0.28 mM NaH₂PO₄, 2.5 mM Na₂HPO₄, 150 mM NaCl, 0.1% TWEEN®-20 and 0.0075% Kathon CG. Purified monoclonal antibodies of interest were 3-fold serially diluted with a starting dilution at 3 μg/ml (mixed 1:2 with dilution buffer (PBS with 0.1% BSA and 0.05% TWEEN®-20)). An anti-ApoE C-terminal antibody was used as a reference antibody (ApoE E-8 mouse monoclonal, Santa Cruz Biotechnology, cat. no. sc-393302). 50 μl/well were added into the ELISA plates and incubated for 2 h at room temperature with shake (600-900 rpm). The plates were washed four times as described previously. […] After another wash (as described previously), 50 μl/well of K-Blue® aqueous substrate (Neogen) were added, and the reaction was stopped after 5-15 min with 50 μl/well of 0.5 M […]. The optical density at 450 nm was read using an ELISA reader (Tecan).
For the molecule B1, the EC50 was found to be 8.7 ng/mL.
As for B2, the EC50 is 3.6 ng/mL.

The next assay addresses T1, L198 N-terminal neo-epitope peptide …. Kind of assay: direct ELISA, L198-BSA peptide coated at 1 µg/ml. Here is the method:
as §1, §2
In turn, B1 had a half-maximal effective concentration (EC50) of 15.2 ng/mL.
As to B2, the half-maximal effective concentration (EC50) stood at 3.2 ng/mL.

For another assay, the target named is T4, full-length ApoE in human brain extract from Alzheimer's disease patients (human, UniProt P02649 19-317).
T4 construct: mature; Endogenous protein on Western blot or in solution (IP); also called ApoE full-length protein
T4 sequence (P02649 19-317): as the sequence (P02649 19-317 C130R limits assumed) above, with R112C counted along it
Kind of assay: Western blot of AD brain RIPA 2% SDS extract; hybridoma supernatant as primary antibody. The source says: Selectivity evaluation and human target binding in Alzheimer's disease brain extracts by Western blot analysis: The Western blot analysis described below was used to evaluate selective binding of monoclonal antibodies with affinity for the N-terminal neo-epitope of ApoE fragments […], starting at G200, without binding to ApoE full-length protein, in human brain extracts from an Alzheimer's disease patient. Fresh frozen brain tissue from the Alzheimer's disease patient was homogenized in RIPA 2% SDS extraction buffer, followed by centrifugation at 16000×g for 1 h. The subsequent supernatant was subjected to standard protein concentration determination.
RIPA 2% SDS brain extract containing 80 μg total protein was mixed with 2×Laemmli sample buffer, boiled for 5 min at 95° C. and loaded onto SDS-PAGE gels (Bolt™ 12% Bis-Tris Plus 10 well, Thermo Fisher, cat. no. NW00120BOX). Gels were run for 30-40 min at 180 V, after which proteins were transferred from the gels to nitrocellulose membranes using the Trans-Blot® Turbo™ system (Bio-Rad). Membranes were blocked in Odyssey® blocking buffer for 1 h and incubated over night at room temperature with hybridoma supernatant diluted 1:1 in Odyssey® blocking buffer with 0.1% TWEEN®-20. Membranes were washed and incubated for 1 h at room temperature with the detection antibody anti-mouse-800CW (LI-COR, cat. no. 925-32210) diluted 1:25000 in Odyssey® blocking buffer with 0.1% TWEEN®-20. Membranes were washed and images acquired using Odyssey® FC (LI-COR).
In the case of B3, the binding result is on record as “no binding (tested: supernatant diluted 1:1 (text))”.
On the same count and under the same terms, the result for B4 reads “no binding (tested: supernatant diluted 1:1 (text))”.
The same measure, in the same setting: the result for B5 reads “no binding (tested: supernatant diluted 1:1 (text))”; that for B6, “no binding (tested: supernatant diluted 1:1 (text))”; that for B7, “no binding (tested: supernatant diluted 1:1 (text))”.
On the same count and under the same terms, the same measure for B8: “no binding (tested: supernatant diluted 1:1 (text))”.

For another assay, the target named is T2, G200 N-terminal neo-epitope peptide …. Kind of assay: direct ELISA, target coated at 1 ug/ml, supernatant in 3-fold dilutions from 1000 ng/ml, OD 450 nm. Here is the method:
(§3) Selectivity evaluation by direct ELISA: The direct ELISA described below was used to evaluate the binding selectivity of generated monoclonal anti-ApoE antibodies with affinity for the N-terminal neo-epitope of C-terminal ApoE fragments starting at amino acid G200.
(§4) The screening was performed according to standard ELISA protocols. Briefly, 1 μg/ml solutions of N-terminal neo-epitope peptide (SEQ ID NO:50) conjugated to BSA, the recombinant C-terminal ApoE fragment G200-HIS (SEQ ID NO:48) and recombinant full-length ApoE4 (SEQ ID NO:45; Abcam; cat. no. ab50243) were prepared by dilution in PBS. 50 μl/well were added to an ELISA half-area 96 well microtiter plate. Then, the plate was sealed with adhesive sealer and incubated over night at 4° C. The plates were blocked with 150 μl/well of protein-free blocking solution (Pierce) for 1 h at room temperature with shake (600-900 rpm). The plates were washed four times with washing buffer containing 0.28 mM NaH₂PO₄, 2.5 mM Na₂HPO₄, 150 mM NaCl, 0.1% TWEEN®-20 and 0.0075% Kathon CG. Antibodies of interest were serially diluted 3-fold with a starting dilution at 1 μg/ml (mixed 1:1 with dilution buffer: PBS with 0.1% BSA and 0.05% TWEEN®-20) and incubated for 2 h at room temperature. The plates were washed four times as before. […] After another wash (as above), 50 μl/well of K-Blue® aqueous substrate (Neogen) were added, and the reaction was stopped after 5-15 min with 50 μl/well of 0.5 M […]. The optical density at 450 nm was read using an ELISA reader (Tecan). The optical density was plotted against the antibody concentration to generate concentration-response curves (FIG. 14).
Consider B4, for which the “EC50 (read off the curve)” value is ~10 ng/mL.
Regarding B5, the “EC50 (read off the curve)” value is ~20 ng/mL.

A further assay addresses T5, recombinant full-length ApoE4 (aa 1-299; SEQ ID NO:45; Abcam cat. no. ab50243) (human, UniProt P02649 19-317).
T5 construct: Bought protein; also called recombinant ApoE4 full-length protein
The description is as above. On the procedure:
as §3, §4
With B3, the binding result is “no binding (tested: 1000 ng/ml)”.
Same read-out and setting: the result for B4 reads “no binding (tested: 1000 ng/ml)”; that for B5, “no binding (tested: 1000 ng/ml)”; that for B6, “no binding (tested: 1000 ng/ml)”.
In the case of B7, the binding result was “no binding (tested: 1000 ng/ml)”.
Consider B8, for which the binding result was “no binding (tested: 1000 ng/ml)”.

The next assay has as its target T6, recombinant C-terminal ApoE fragment G200-HIS (ApoE-G200-H299-10xHIS) (human, UniProt P02649 218-317).
T6 construct: also called G200-HIS fragment
The assay is described as above. Here is the method: as §3, §4
Take B3: the “EC50 (read off the curve)” value was ~5 ng/mL.
Still for that read-out and setting: the same measure for B4: ~10 ng/mL.
In the case of B5, the “EC50 (read off the curve)” value was ~8 ng/mL.
As to B6, the “EC50 (read off the curve)” value is ~8 ng/mL.
Still for that read-out and setting: the result for B8 reads ~10 ng/mL.
